Test system: Saccharomyces cerevisiae
Experiment: transcriptional activation domain activity (GFP:mCherry ratio, weighted mean of sorted bins, harmonized to initial dataset scale) (arbitrary fluorescence ratio units); higher = stronger transcriptional activation
Conditions: beta-estradiol 1 µM; induction time 4 h
In short: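 Protein tiles carrying barcodes and fused to an estradiol-inducible synthetic transcription factor were placed at the URA3 locus of yeast diploids with a GFP reporter. Following 4 hours at 30 °C in SC with 1 uM beta-estradiol, cells were sorted into 8 GFP:mCherry bins, barcodes were sequenced, and tiles with fewer than 50 reads were discarded. Activation activity is given as the read-weighted mean of bin median fluorescence, averaged across barcodes and linearly mapped to the initial dataset scale.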

Sequence: RKPEAAAEKAAEAPEAAGGEGTRRRASGRGRGRGRNGRGGRSARAGEEKKDET
- transcriptional activation domain activity: 29500

Sequence: RKPEAAAEKTAEAPEATGGEGTRRRASGRGRGRGRNGRGGRSGRAEGEEKKDE
- transcriptional activation domain activity: 31500

Sequence: RKPEPAGEKAEGAQSGGEGQNGEGRRRGGGRGRGRARGRGGRGGRGGRGQRNA
- transcriptional activation domain activity: < 6570

Sequence: RKPESNEKTEGANGEGHDGTRRRQSTRGRGRAGRGRGGRARGERGEKKEEGAE
- transcriptional activation domain activity: 14100

Sequence: RKPETAGEGSGAEGASGGENHRRGSTRGRGRGRGRGGRSSRGGRSRKDGAGAE
- transcriptional activation domain activity: 33500

Sequence: RKREEEDARVQEAALKEEEDARVREAARKEEEEEAERLKRRREEEDARVQEAA
- transcriptional activation domain activity: 22400

Sequence: RKRGWSDEDGEGEGAEGGEAQNGKGKGKGRGRRARGKGKGKGKESAEAEKDED
- transcriptional activation domain activity: 27200

Sequence: RKRKASASPERDEEGKSGPKGRGRTARRGSKAGRGKSGGTQRGGRKGASEREV
- transcriptional activation domain activity: 38500

Sequence: RKSAATEEKEEKKEAPKAKRAKKAKEPEPEVEAEAEAAAEKVEEVKEKKKPGR
- transcriptional activation domain activity: 24800

Sequence: RKSELIAKYGLLPRDLRKIDSSVLPHILVRHSAILISLLHLRVLIKADRVLVF
- transcriptional activation domain activity: 57200

Sequence: RKSTSGKTEKADTEKPEKKKPANEGNTAAGTKGTGERKPAVKAGGGVKGRPSG
- transcriptional activation domain activity: 17800

Sequence: RKTGGRSKRTTRGEGKKEEGRSPTKERTTKGARRSKEETRAGGRTSQAEERGK
- transcriptional activation domain activity: 33900

Sequence: RKTKFPILLSGDGYIHFGFLYAVIPNLNIMAMSYVAVINNVRVVAYLCLWMSL
- transcriptional activation domain activity: 50800

Sequence: RKVGFILYVIMHMRINIVFAAFRLAKFNINPNSVYIKIINCVIKYLLKTMDYF
- transcriptional activation domain activity: 44700

Sequence: RLAELCLLIDPRLLVKLAGVMARYIESMATYRAHPRQIYNRQCSVFNTSLKLF
- transcriptional activation domain activity: 62200

Sequence: RLAGGLRGLTGLEKEELRKRGWGLGWWMMRGAFYENITKAWIHTVTRKLKNKP
- transcriptional activation domain activity: 47300

Sequence: RLCEFLFFLLFFGGFLVGGLVGLGVWFGWAFVLAFSFFLALHFGVSNHLFVVF
- transcriptional activation domain activity: 29000

Sequence: RLCPRLGLVELFFKNSAELSKVLKALGAAAATTLCTVVFPGYSHRLSFLQWYP
- transcriptional activation domain activity: 62400

Sequence: RLCYERFILCLICLPILYLPLVLILGIFIALSLTYIIFISFDPIISSMWYLAL
- transcriptional activation domain activity: 68400

Sequence: RLDATAEEEAKRQRACEACRALKVRCDRGSDDSPCKRCEKARRECVITQPSRK
- transcriptional activation domain activity: 40300

Sequence: RLEASKKRKARVEVDIVLERDCVVEGGEVRGRMEVRVHGSKRSEGLRVGAGKI
- transcriptional activation domain activity: 44400

Sequence: RLEKQGWFAYIKEFRIFLPCLWPTGSIRGKLCLVVLILDLVINRFLRVLTPRQ
- transcriptional activation domain activity: 59800

Sequence: RLETLHKCIVTYLWLSYRFANLVGSRKVATYAKEITENVIEKTLMEFTWTRWA
- transcriptional activation domain activity: 52000

Sequence: RLFAELFMFSICLFSRVLSYFSVFQLQLINVLMYFLPLMIICGYWAGLLNVAI
- transcriptional activation domain activity: 52500

Sequence: RLFALLHLHILAYISFFISSSLAYHLHLFLLLLSYFSLLFCIFVSPRLGLSSC
- transcriptional activation domain activity: 66400

Sequence: RLFAYYRSGWQVSNADVVQLPSWLFTLFLCAVCYLCMTIWYTYLTFQIHCVYW
- transcriptional activation domain activity: 66300

Sequence: RLFGRGQWTLGRVIFFVFFYFNVAPLMLGVSMVCWFMVFWIPMGRVTLILFYH
- transcriptional activation domain activity: 85300

Sequence: RLFSKQLHPRMFRVCLTLIIIVAIWGLTFICLVIFACNPVEKSWHVTMPGKCI
- transcriptional activation domain activity: 27500

Sequence: RLGEEKRSKSTEEAPREESEEAESTKKASGKSESAGEEKTKEEGEEGEGKKEG
- transcriptional activation domain activity: 30800

Sequence: RLGQCVKRYFDSKQVTHLVNAGKYGTGVVSYLFYFMWSYREESRGANFALWCF
- transcriptional activation domain activity: 79300

Sequence: RLHCHVVCPLSHSLLTQVYLFLFFFLSNLLITSLSLPVHFFPFILCLCCIAHF
- transcriptional activation domain activity: 58000

Sequence: RLHILVGFVTVAEVTNIVFITRSSWRILIGGVERPDLILIPPATSVGTPILNG
- transcriptional activation domain activity: 35000

Sequence: RLHTLRMPISWPLLGLARRRLASLRTFAVWIKPRHSSLTAAERLAFTQFLAAH
- transcriptional activation domain activity: 79000

Sequence: RLILILSLLVCWAAAIIDCVFVIIAGVTGVLQPQSRYLVLLLPMLFTNFLATL
- transcriptional activation domain activity: 57300

Sequence: RLIYGDYVSYHFLKMLHKVHDQISLAYIHHGLELVMWSCKVLVLLFKQLFESY
- transcriptional activation domain activity: 67900

Sequence: RLKLFIMVVFCLGTIHEYALIGMYWSILISCRRSMSLECTTKLPWQMVLGVFM
- transcriptional activation domain activity: 49800

Sequence: RLLIVFAWMCRLGCWIEMDHEARLVLLKFLATFKANSNNVISYKLDQYYLTGL
- transcriptional activation domain activity: 80100

Sequence: RLLNALLLPPYLEQIMYFGTLACFDAWLYTFTILPMRFISAVGVLVKWWLYLI
- transcriptional activation domain activity: 47500

Sequence: RLLNKTRQCHDDGIAVLQNSIETISTTLVLWTHREVIGPLQLNLNWVAMSFAC
- transcriptional activation domain activity: 48200

Sequence: RLLRLLLRLLRLLLLRLLLLLLLLLLLLLLLRLLLRLLVTLILFLNIQRVLIL
- transcriptional activation domain activity: 16300

Sequence: RLLRNLPLIAGHGPKYLQGIDKFVENEFLTVVGTWMRATKFDVLSFMIHYVTL
- transcriptional activation domain activity: 65500

Sequence: RLLVTTYRMFFILVVTLNLIALALVTVGHFPYADNHIGVILLGNLLCAVMIRN
- transcriptional activation domain activity: 29800

Sequence: RLMKKKKKSSLVFVFNHFRPVYVFLFFFSLYFFPFLSTPYFFPSFFFLFLFWV
- transcriptional activation domain activity: 49900

Sequence: RLNFLLFCLSLFLSLYFFPFCLLFFLFSLSSFLFCLPSFLSLLSSFFFFFVSL
- transcriptional activation domain activity: 57200

Sequence: RLPNEWGWVLNVHLCIFYTIAFCFSVYQFCLDVIIGFPQMPWLESLSLLLPVL
- transcriptional activation domain activity: 37500

Sequence: RLPNNANSTTGLNDNDYNLDDTNNDNTNSMQSILEDFVSSEEALKFMPDAGRD
- transcriptional activation domain activity: 30400

Sequence: RLQRDGQAGAGRGEARGGRGPVAGGQGAQHAGPVRRHRRQRRAGHLHGRKQHQ
- transcriptional activation domain activity: 32800

Sequence: RLRAEGEEDAAAGNDQNKSGRKGGGVAMVGDGINDSPALAAASVGIALSTGSE
- transcriptional activation domain activity: 29300

Sequence: RLRKDVGPFSPDDIQKPSLTWIHVRRNNLLLMMAPVRSYTWKAAQTLGEIFGA
- transcriptional activation domain activity: 28000

Sequence: RLRLSCYIMMCVVTSYSTWAIVSGYFTCVPVAKFWDPTIKGHCLNFQALWFFN
- transcriptional activation domain activity: 61900

Sequence: RLRVLYSAWQLHVDGKVRIGTLAIIGSFKELRYLGGKRTRRCGLVALLLLSAY
- transcriptional activation domain activity: 50700

Sequence: RLRVWELGRNSWTVYKFNPDLFPFIDVYPWPRICRLLKCLVFVFRYLEIIRPL
- transcriptional activation domain activity: 51800

Sequence: RLSASKIYIWCSGGVVFAIVLALQVLVLLALLNVITCLEGHMLSIHGWPRGEC
- transcriptional activation domain activity: 31100

Sequence: RLSSSSKSKRSLRHPQRALCSSRAWEEDGGGNPNGGRGFVVRIRRFGRARLHS
- transcriptional activation domain activity: 62500

Sequence: RLSTFYNLNLIRVLFRFLFTLPLLILAHDFLLMLGALGCFVSSCITLLIFFPR
- transcriptional activation domain activity: 63000

Sequence: RLVVLYGASRIVVAIKRAHGGFDYTRRLSDEEPMVRIMTVVVSYSRLILISVY
- transcriptional activation domain activity: 53300

Sequence: RLVYLMAKNKFGADAQQEFIGDYFRTDSATFRDVRVLFGLLSRSWFGRVWCIQ
- transcriptional activation domain activity: 52200

Sequence: RLWCFSRGFMLVNYNVLVLSCQLAWSSEFLMSFWTFVFVLILMLLYYFVWAHK
- transcriptional activation domain activity: 43700

Sequence: RLWLVRGPFTELFRRFLFSNIRFTSKVTIISYIGTYYAIGAAWIMTTANYLAI
- transcriptional activation domain activity: 47600

Sequence: RLWQLILCKLEHFHLGFFLLGSVNNIYFTYKILNDMFDIVLLGQDQQDNDDEL
- transcriptional activation domain activity: 60000

Sequence: RLYAVRLVIVILVMELTLHFLYVVAISKSKAWDGASPLELSMVGYFNLVIIWM
- transcriptional activation domain activity: 42900

Sequence: RLYLKGVVLTLWSLDTIHLICVCHALYWYLITNFLNAFVLEKLAWYRGWCPSH
- transcriptional activation domain activity: 68600

Sequence: RLYMLCTKIFLLLVGQRSEVGLTYASCITFMLCAAIPSESFVRNLVLLRVMLA
- transcriptional activation domain activity: 58400

Sequence: RMGMTQELLALVTGLAHYLKILIRIALTGALKLERDYVLREAISSFLDKLHLL
- transcriptional activation domain activity: 69700

Sequence: RMGRWKHGWRKWWWKFYKWCFLWMIEVIRVVKVVGIVIVGCIYLGLRFFIFVE
- transcriptional activation domain activity: 57000

Sequence: RMIGLPILLWLGTLTCQIGLLVLLRSVVFGQTNSGNVLPWGLGFWALTISTNI
- transcriptional activation domain activity: 71800

Sequence: RMLFPNVQELHWEAQNFEKSPLLNMFMGLHLTEIYFTFSAGSYAQMTWIPIMY
- transcriptional activation domain activity: 33300

Sequence: RMMREDYFPVARLFYCAFMLIHPHFEIPRFWQMGMHILHMLASLNYRPAILTM
- transcriptional activation domain activity: 68400

Sequence: RMPKDCKSREFRDKAHDAVDAFAVDLEKRLRDENRPALLKLACLLMVLHQIEL
- transcriptional activation domain activity: 58600

Sequence: RMVYSIRLVFHLYAELLLDRAFFLEWFLSFFAECSLDVLPLAFPIATALWDDL
- transcriptional activation domain activity: 64600

Sequence: RNEGEARKGEGGRMRVVGIRQRAEGKTRRRGRKRERGREGSERRGEGGGREQG
- transcriptional activation domain activity: < 6570

Sequence: RNGDKDSGHSRHKDRRHEHRSERRRYSDEGEEDRHRSHRSSHRSSRRRSRSRS
- transcriptional activation domain activity: 31900

Sequence: RNGKRTRNARKLRKPRRSRRRGEEKKKPNASALKRQRRREKKQEEELRRKQKR
- transcriptional activation domain activity: 47800

Sequence: RNIGTGPSAPGGVDHKRSRACESCRGLKVRCEPANEANLQGSCKRCAKAGRHC
- transcriptional activation domain activity: 40400

Source: the supplement of paper PMC12636428
